Series [1] concerns ZFN7264 linker TSRPRPKP (artificial). The experiment in a line: cell_activity. Conditions: yeast, paired with 7263 ZFN.
Series [2] relates to ZFN7264 linker TGLPKPKP (artificial). The experiment in a line: cell_activity. Conditions: yeast, paired with 7263 ZFN.
For series [3], the system named is ZFN7264 linker TGGGGSQKP (artificial). The experiment in a line: cell_activity. Conditions: yeast, paired with 7263 ZFN.
Series [4] has as its system ZFN7264 (host, center linker TGSQKP) (synthetic). The experiment in a line: cell_activity. Conditions: yeast, partner ZFN7263; host on 0-bp gap = 1.00; host data same as Table 9.
The subject of series [5] is ZFN7264 linker 1e (artificial). The experiment in a line: cell_activity. Conditions: yeast, paired with 7263 ZFN.
Series [6] deals with ZFN7263 linker TQRPQIPPKP (artificial). Kind of series: cell_activity. Conditions: yeast, paired with 7264 ZFN.
Series [7] relates to ZFN7263 linker TPLCQRPMKQKP (artificial). The experiment in a line: cell_activity. Conditions: yeast, paired with 7264 ZFN.
The subject of series [8] is ZFN7263 linker TPNRCPPTKP (artificial). The experiment in a line: cell_activity. Conditions: yeast, paired with 7264 ZFN.
Series [9] deals with ZFN7263 linker TPRPPIPKP center linker F2-F3 TGSQKP replaced by TPRPPIPKP (artificial). Kind of series: cell_activity. Conditions: normalized yeast MEL-1 score.
For series [10], the system named is ZFN7263 linker TGGGGSQKP center linker F2-F3 TGSQKP replaced by TGGGGSQKP (artificial). Kind of series: cell_activity. Conditions: normalized yeast MEL-1 score.
Series [11] deals with ZFN7263 (host) (artificial). Kind of series: cell_activity.
The test system of series [12] is ZFN7263 linker TYPRPLLAKP (artificial). Kind of series: cell_activity. Conditions: yeast, paired with 7264 ZFN.
Series [13] deals with ZFP8196 linker TSSPRSNAKP (artificial).
Series [14] relates to ZFP8196 linker TPGLHRPKP (artificial).
Series [15] has as its system ZFP8196 linker TSPRLPAPKP (artificial).
Series [16] deals with ZFP8196 linker TEPRAKPPKP (artificial).
In series [17] the test system is ZFP8196 linker TGEGGKP (artificial).
Series [18] has as its system ZFP8196 linker LRQKDERP (artificial).
For series [19], the system named is ZFP8196 linker TCPRPPTRKP (artificial).
Series [20] has as its system ZFP8196 linker TPSHTPRPKP (artificial).
Series [21] has as its system ZFP8196 linker TPDRPISTCKP (artificial).
The test system of series [22] is ZFP8196 linker TVSPAPCRSKP (artificial).
Series [23] has as its system ZFP8196 linker TPDAPKPKP (artificial).
In series [24] the test system is ZFP8196 linker TGYSIPRPKP (artificial).
The subject of series [25] is ZFP8196 linker TGGGGSQKP (artificial).
For series [26], the system named is ZFP8196 linker 1c center linker F2-F3 TGEKP replaced by THPRAPIPKP (artificial). Kind of series: ELONA. Conditions: normalized ELISA score. (An ELISA detects its analyte on a solid surface through an enzyme-linked reagent.)
Series [27] concerns ZFP8196 linker 1f center linker F2-F3 TGEKP replaced by TYPRPIAAKP (artificial). The experiment in a line: ELONA. Conditions: normalized ELISA score.
For series [28], the system named is ZFP8196 (host, center linker TGEKP) (artificial). Kind of series: ELONA. Conditions: normalized ELISA score.
The test system of series [29] is ZFP8196 linker 1d center linker F2-F3 TGEKP replaced by TPNRRPAPKP (artificial). Kind of series: ELONA. Conditions: normalized ELISA score.
Series [30] concerns ZFP7263 linker TYPRPLLAKP center linker F2-F3 TGSQKP replaced by TYPRPLLAKP (artificial). The experiment in a line: ELONA. Conditions: normalized ELISA score.
Series [31] has as its system ZFP7263 linker TQRPQIPPKP center linker F2-F3 TGSQKP replaced by TQRPQIPPKP (artificial). The experiment in a line: ELONA. Conditions: normalized ELISA score.
Series [32] concerns ZFP7263 (host, center linker TGSQKP) (artificial). The experiment in a line: ELONA.
Series [33] deals with ZFP7263 linker TGEGGKP (artificial).
Series [34] has as its system ZFP7263 linker TPNRCPPTKP (artificial).
Series [35] concerns ZFP7263 linker TPLCQRPMKQKP (artificial).
In series [36] the test system is ZFP7263 linker TGGGGSQKP (artificial).
Series [37] relates to ZFP7263 linker TPRPPIPKP (artificial).
Series [38] concerns ZFP7263 linker LRQKDERP (artificial).
Series [39] has as its system ZFP7263 linker LRQKDERP center linker F2-F3 TGSQKP replaced by LRQKDERP (artificial). The experiment in a line: ELONA. Conditions: normalized ELISA score.
In series [40] the test system is ZFP7263 linker TPRPPIPKP center linker F2-F3 TGSQKP replaced by TPRPPIPKP (artificial). The experiment in a line: ELONA. Conditions: normalized ELISA score.
For series [41], the system named is ZFP7263 linker TGGGGSQKP center linker F2-F3 TGSQKP replaced by TGGGGSQKP (artificial). The experiment in a line: ELONA. Conditions: normalized ELISA score.
The test system of series [42] is ZFP7263 linker TGEGGKP center linker F2-F3 TGSQKP replaced by TGEGGKP (artificial). The experiment in a line: ELONA. Conditions: normalized ELISA score.
In series [43] the test system is ZFP7263 linker TPLCQRPMKQKP center linker F2-F3 TGSQKP replaced by TPLCQRPMKQKP (artificial). The experiment in a line: ELONA. Conditions: normalized ELISA score.
Series [44] has as its system ZFP7263 linker TPNRCPPTKP center linker F2-F3 TGSQKP replaced by TPNRCPPTKP (artificial). Kind of series: ELONA. Conditions: normalized ELISA score.
The test system of series [45] is ZFP7264 (host, center linker TGSQKP) (artificial). The experiment in a line: ELONA. Conditions: normalized ELISA score.
The subject of series [46] is ZFP7264 linker 1e center linker F2-F3 TGSQKP replaced by TVPRPTPPKP (artificial). Kind of series: ELONA. Conditions: normalized ELISA score.
Series [47] relates to ZFP7264 linker TKHGTPKHREDKP (artificial).
The test system of series [48] is ZFP7264 linker TGGGGSQKP (artificial).
Series [49] deals with ZFP7264 linker TLPPCFRPKP (artificial).
Series [50] deals with ZFP7264 linker LRQKDERP (artificial).
Series [51] relates to ZFP7264 linker TGLPKPKP (artificial).
For series [52], the system named is ZFP7264 linker TLPLPRPKP (artificial).
Series [53] has as its system ZFP7264 linker TGEGGKP (artificial).
The test system of series [54] is ZFP7264 linker TSRPRPKP (artificial).

As for “AAAGCGAGCTCCG (double strand) [7264 yeast half-site gap A]”, the activity (normalized MEL-1) in series [1] came to 0.18; in [2], 0.08; in series [3] it was 0.08; in series [4], 0.05; in series [5], 1.24.
As to “AAAGCGCGCTCCG (double strand) [7264 yeast half-site gap C]”, the activity (normalized MEL-1) was found to be 0.08 in series [1]; 0.07 in series [2]; 0.07 in series [3]; 0.05 in [4]; 0.14 in series [5].
As for “AAAGCGGGCTCCG (double strand) [7264 yeast half-site gap G]”, the activity (normalized MEL-1) in [1] amounted to 0.61; in [2] it was 0.42; in series [3] it was 0.14; in series [4], 0.09; in series [5], 1.4.
Take “AAAGCGTTGCTCCG (double strand) [7264 yeast half-site gap TT]”: the activity (normalized MEL-1) is 0.03 in series [1]; 0.11 in series [2]; 0.12 in [3]; 0.09 in [4]; 0.12 in series [5].
“ACTCTGTGGAAG (double strand) [7263 yeast half-site 0-bp gap]”: the activity (normalized MEL-1) in [6] stood at 0.04; in [7], 0.04; in series [8], 0.05; in series [12] it was 0.05. The activity came to 0.04 in [9]; 0.11 in series [10]; 1 in [11] (yeast MEL-1 score, with invariant 7264 ZFN partner (reference)).
Regarding “ACTCTGTTGGAAG (double strand) [7263 yeast half-site gap T]”, the activity (normalized MEL-1) in [6] is 1.19; in series [7], 1.19; in [8], 1.59; in series [12] it was 1.06. Moreover, the values for the activity in series [9], in [10] and in series [11] (normalized yeast MEL-1 score) were 1.4, 0.31 and 0.06, respectively.
Regarding “TTAGATAAACTGTCCAAAAGGCTATC (double strand) [8196 target gap TC]”, the binding signal (normalized ELISA) was 0.01 in series [13]; 0.01 in [14]; 0.01 in series [15]; 0.02 in [16]; 0 in [17]; 0 in series [18]. Besides, the binding signal (normalized ELISA) in [19] was 0.01; in series [20], 0.02; in [21], 0.03; in series [22], 0.02; in series [23], 0.01; in series [24], 0.01. Further, in series [25], the binding signal (normalized ELISA) was 0. The binding signal in series [26] is 0.01; in [27] it was 0.01; in [28], 0; in series [29] it was 0.01.
“TTAGCCACTCTGACTGGAAGTGTATC (double strand) [7263 target gap AC]”: the binding signal in series [30] was 0.03; in series [31] it was 0.03; in series [32] (normalized ELISA score), 0.01. For the same sequence, the binding signal (normalized ELISA) in [33] worked out at 0.01; in series [34], 0.03; in [35] it was 0.08; in series [36] it was 0.01; in series [37] it was 0.02; in [38], 0.01.
As for “TTAGCCACTCTGTGGAAGTGTATC (double strand) [7263 target 0-bp gap]”, the binding signal is 0.29 in [30]; 0.25 in series [39]; 0.14 in series [40]; 0.51 in series [41]; 0.15 in series [31]; 1.3 in [42]. The binding signal in [32] (ELISA normalized to host on 0-bp gap target (reference)) was 1; in series [43] it was 0.28; in series [44], 0.31.
Take “TTAGCCACTCTGTTGGAAGTGTATC (double strand) [7263 target gap T]”: the binding signal came out at 3.97 in series [30]; 0.13 in series [39]; 2.09 in series [40]; 0.39 in [41]; 3.05 in series [31]; 0.04 in series [42]. Besides, the values for the binding signal in series [32] (normalized ELISA score), in series [43] and in series [44] were 0.02, 4 and 3.16, respectively.
As for “TTAGTTAAAGCGTTGCTCCGAATATC (double strand) [7264 target gap TT]”, the binding signal in [45] turned out to be 0; in series [46] it was 0.05. Also, the binding signal (normalized ELISA) worked out at 0 in [47]; 0.03 in series [48]; 0.06 in series [49]; 0.02 in [50]; 0.03 in series [51]; 0.04 in series [52]. Moreover, the binding signal (normalized ELISA) in series [53] and in series [54] was 0.03 throughout.

For the origin of these results see US20110287512.
